Experimental findings from patent US20250282860A1 (SUZHOU FORLONG BIOTECHNOLOGY, published 2025) are described below.

The labels stand for the following.
T1: IL-2 receptor α (UniProt P01589 22-213, limits assumed)
T1 construct: BLI used Anti-human IgG Fc Capture (AHC) probes with the IL-2 mutant diluted as analyte; also called IL-2Rα; CD25
T1 sequence (looked up): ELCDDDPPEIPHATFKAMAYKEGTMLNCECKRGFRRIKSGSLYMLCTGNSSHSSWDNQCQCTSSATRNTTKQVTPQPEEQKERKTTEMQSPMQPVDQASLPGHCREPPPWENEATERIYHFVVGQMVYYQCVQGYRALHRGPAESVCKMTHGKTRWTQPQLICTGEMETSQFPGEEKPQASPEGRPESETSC

T2: IL-2 receptor β (UniProt P14784 27-239, limits assumed)
T2 construct: BLI used Anti-human IgG Fc Capture (AHC) probes with the IL-2 mutant diluted as analyte; also called IL-2Rβ; CD122
T2 sequence (looked up): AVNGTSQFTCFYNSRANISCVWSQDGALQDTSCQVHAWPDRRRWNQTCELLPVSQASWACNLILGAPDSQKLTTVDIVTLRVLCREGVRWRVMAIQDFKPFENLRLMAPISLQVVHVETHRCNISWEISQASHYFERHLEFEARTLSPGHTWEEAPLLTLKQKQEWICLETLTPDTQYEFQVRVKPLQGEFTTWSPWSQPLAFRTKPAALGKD

B1: IL-2 mutant 21-C1 (ligand)
chain: APTSSSTKKTQLQLEHLLLDLQMILNGINNYKNPLLTDMLTLHFYMPKKATELKHLQCLEEELKPLEEVLNFAQSKNFHLRPRDLISNINVIVLELKGSETTFMCEYADETATIVEFLNRWITFCQSIISTLT
notes: Expressed in Expi293; also called 1.21-C1
B2: IL-2 mutant 22-A4 (ligand)
chain: APTSSSTKKTQLQLEHLLLDLQMILNGINNYKNPGLTDMLTIQFFMPKKATELKHLQCLEEELKPLEEVLNFAQSKNFHLRPRDLISNINVIVLELKGSETTFMCEYADETATIVEFLNRWITFCQSIISTLT
notes: Expressed in Expi293; also called 4.22-A4
B3: IL-2 mutant 21-F9 (ligand)
chain: APTSSSTKKTQLQLEHLLLDLQMILNGINNYKNPMLTDMLTVGFFMPKKATELKHLQCLEEELKPLEEVLNFAQSKNFHLRPRDLISNINVIVLELKGSETTFMCEYADETATIVEFLNRWITFCQSIISTLT
notes: Expressed in Expi293; also called 2.21-F9
B4: IL-2 mutant 24-D2 (ligand)
chain: APTSSSTKKTQLQLEHLLLDLQMILNGINNYKNPELTDMLTFKFYMPKKATELKHLQCLEEELKPLEEVLNGAQSKNFHLRPRDLISNINVIVLELKGSETTFMCEYADETATIVEFLNRWITFCQSIISTLT
notes: Expressed in Expi293; also called 13.24-D2
B5: IL-2 mutant 23-H9 (ligand)
chain: APTSSSTKKTQLQLEHLLLDLQMILNGINNYKNPGLTDMLTYSFDMPKKATELKHLQCLEEELKPLEEVLNLAQSKNFHLRPRDLISNINVIVLELKGSETTFMCEYADETATIVEFLNRWITFCQSIISTLT
notes: Expressed in Expi293; also called 10.23-H9
B6: IL-2 mutant 23-C8 (ligand)
chain: APTSSSTKKTQLQLEHLLLDLQMILNGINNYKNPGLTDMLTFNFYMPKKATELKHLQCLEEELKPLEEVLNFAQSKNFHLRPRDLISNINVIVLELKGSETTFMCEYADETATIVEFLNRWITFCQSIISTLT
notes: Expressed in Expi293; also called 9.23-C8
B7: IL-2 mutant 24-C6 (ligand)
chain: APTSSSTKKTQLQLEHLLLDLQMILNGINNYKNPELTEMLTFKFYMPKKATELKHLQCLEEELKPLEEVLNAAQSKNFHLRPRDLISNINVIVLELKGSETTFMCEYADETATIVEFLNRWITFCQSIISTLT
notes: Expressed in Expi293; also called 12.24-C6
B8: IL-2 mutant 24-C2 (ligand)
chain: APTSSSTKKTQLQLEHLLLDLQMILNGINNYKNPDLTEMLTFKFYMPKKATELKHLQCLEEELKPLEEVLNSAQSKNFHLRPRDLISNINVIVLELKGSETTFMCEYADETATIVEFLNRWITFCQSIISTLT
notes: Expressed in Expi293; also called 11.24-C2
B9: IL-2 mutant 22-E8 (ligand)
chain: APTSSSTKKTQLQLEHLLLDLQMILNGINNYKNPDLTEMLTFKFYMPKKATELKHLQCLEEELKPLEEVLNQAQSKNFHLRPRDLISNINVIVLELKGSETTFMCEYADETATIVEFLNRWITFCQSIISTLT
notes: Expressed in Expi293; also called 7.22-E8
B10: IL-2 mutant 21-F10 (ligand)
chain: APTSSSTKKTQLQLEHLLLDLQMILNGINNYKNPELTDMLTFKFYMPKKATELKHLQCLEEELKPLEEVLNAAQSKNFHLRPRDLISNINVIVLELKGSETTFMCEYADETATIVEFLNRWITFCQSIISTLT
notes: Expressed in Expi293; also called 3.21-F10
B11: IL-2 mutant 24-E4 (ligand)
chain: APTSSSTKKTQLQLEHLLLDLQMILNGINNYKNPDLTDMLTFKFYMPKKATELKHLQCLEEELKPLEEVLNAAQSKNFHLRPRDLISNINVIVLELKGSETTFMCEYADETATIVEFLNRWITFCQSIISTLT
notes: Expressed in Expi293; also called 14.24-E4
B12: IL-2 mutant 22-B2 (ligand)
chain: APTSSSTKKTQLQLEHLLLDLQMILNGINNYKNPSLTDMLTLQFYMPKKATELKHLQCLEEELKPLEEVLNFAQSKNFHLRPRDLISNINVIVLELKGSETTFMCEYADETATIVEFLNRWITFCQSIISTLT
notes: Expressed in Expi293; also called 5.22-B2
B13: IL-2 mutant 22-D11 (ligand)
chain: APTSSSTKKTQLQLEHLLLDLQMILNGINNYKNPDLTDMLTLRFFMPKKATELKHLQCLEEELKPLEEVLNFAQSKNFHLRPRDLISNINVIVLELKGSETTFMCEYADETATIVEFLNRWITFCQSIISTLT
notes: Expressed in Expi293; also called 6.22-D11
B14: IL-2 mutant 24-D2-C125A (ligand)
chain: APTSSSTKKTQLQLEHLLLDLQMILNGINNYKNPELTDMLTFKFYMPKKATELKHLQCLEEELKPLEEVLNGAQSKNFHLRPRDLISNINVIVLELKGSETTFMCEYADETATIVEFLNRWITFAQSIISTLT
B15: IL-2 mutant 22-E8-C125A (ligand)
chain: APTSSSTKKTQLQLEHLLLDLQMILNGINNYKNPDLTEMLTFKFYMPKKATELKHLQCLEEELKPLEEVLNQAQSKNFHLRPRDLISNINVIVLELKGSETTFMCEYADETATIVEFLNRWITFAQSIISTLT
B16: IL-2 mutant 24-E4-C125A (ligand)
chain: APTSSSTKKTQLQLEHLLLDLQMILNGINNYKNPDLTDMLTFKFYMPKKATELKHLQCLEEELKPLEEVLNAAQSKNFHLRPRDLISNINVIVLELKGSETTFMCEYADETATIVEFLNRWITFAQSIISTLT
B17: IL-2 mutant 23-C8-C125A (ligand)
chain: APTSSSTKKTQLQLEHLLLDLQMILNGINNYKNPGLTDMLTFNFYMPKKATELKHLQCLEEELKPLEEVLNFAQSKNFHLRPRDLISNINVIVLELKGSETTFMCEYADETATIVEFLNRWITFAQSIISTLT
B18: IL-2 mutant 21-F10-C125A (ligand)
chain: APTSSSTKKTQLQLEHLLLDLQMILNGINNYKNPELTDMLTFKFYMPKKATELKHLQCLEEELKPLEEVLNAAQSKNFHLRPRDLISNINVIVLELKGSETTFMCEYADETATIVEFLNRWITFAQSIISTLT
B19: IL-2 mutant 24-C2-C125A (ligand)
chain: APTSSSTKKTQLQLEHLLLDLQMILNGINNYKNPDLTEMLTFKFYMPKKATELKHLQCLEEELKPLEEVLNSAQSKNFHLRPRDLISNINVIVLELKGSETTFMCEYADETATIVEFLNRWITFAQSIISTLT

The target of the first experiment is T1, IL-2 receptor α. Description: BLI, AHC probes. In general terms: In BLI a coated tip is dipped into the sample, and binding shifts an interference pattern.
Regarding B1, the binding result is listed as “no binding (tested: 100 nM highest concentration)”.

Consider B2, for which the binding result is listed as “no binding (tested: 100 nM highest concentration)”.

Consider B3, for which the binding result is “no binding (tested: 100 nM highest concentration)”.

With B4, the binding result is recorded as “no binding (tested: 100 nM highest concentration)”.

Turning to B5, the binding result is “no binding (tested: 100 nM highest concentration)”.

Turning to B6, the binding result is on record as “no binding (tested: 100 nM highest concentration)”.

As to B7, the binding result is “no binding (tested: 100 nM highest concentration)”.

B8: the binding result is given as “no binding (tested: 100 nM highest concentration)”.

On to B9, for which the binding result is given as “no binding (tested: 100 nM highest concentration)”.

As for B10, the binding result was “no binding (tested: 100 nM highest concentration)”.

With B11, the binding result is “no binding (tested: 100 nM highest concentration)”.

With B12, the binding result is on record as “no binding (tested: 100 nM highest concentration)”.

Regarding B13, the binding result is “no binding (tested: 100 nM highest concentration)”.

The target of a further experiment is T1, IL-2 receptor α. The experiment is described as follows: BLI with AHC probes; C125A protein in 3-fold dilutions from 100 nM to 1.23 nM.
Consider B14, for which the binding result is recorded as “no binding (tested: 100 nM)”.

For the molecule B15, the binding result is reported as “no binding (tested: 100 nM)”.

For the molecule B16, the binding result is “no binding (tested: 100 nM)”.

On to B17, for which the binding result is “no binding (tested: 100 nM)”.

Regarding B18, the binding result is listed as “no binding (tested: 100 nM)”.

Regarding B19, the binding result was “no binding (tested: 100 nM)”.

The next experiment deals with T2, IL-2 receptor β. Description: BLI, AHC probes, IL-2 diluted 3-fold from 1000 nM to 12.35 nM.
As usually defined, the Kd is the constant that tells how readily two partners part at equilibrium. For the molecule B3, the dissociation constant Kd turned out to be 50 nM.
